Source: paper PMC8528806, “Enzyme promiscuity in natural environments: alkaline phosphatase in the ocean” (The ISME Journal, 2021)

B1: PhoA (APase; MADE1013045) (Alteromonas mediterranea DE) (protein)
chain: MIKQFVRTSILSCASIAVLAGCGITESAHQPANHNRAQLQGVPKNIIMVVADGMGPAYTTAYRNYVDDPTTPNIEPVVFDDILVGNASTYPAQVSGYVTDSAAAATALASGVKSYNGAIGVDVNKQPVNSVMYYAKSKSMRTGLAVTSQIVHATPASYIAHNESRKNYNEIADDFFDVRVNGEFVADVMLGGGTSYFEREDRDILAQFIDAGYEYADSYNRLASVPAGSNVLGLFAPVALPAVLDDKRKNRLKYLTKNAIKHLENDNGFFLLVEASQVDWAGHANDIASAMAEMHDLAITMEYLRDYVEANPDTLVVLTADHSTGGLTIGANGDYRWSPEHLKSLSASVMTIALEMANEENPGEFVAAKLGLSLTEQELATLNSISNQDDKTRLSAVKTFLDTKTNTGWTTGGHTGVDVEVFAFGAGYQSFMGQIDNTDIAKKIFSFIDKKQPAKIAFPSKKVSTNIELTSDEDDDELCDFKEDWRCN
notes: full-length 1467-bp synthetic gene, pETM-14, N-terminal His6-PreScission 3C, tag cleaved, expressed in E. coli BL21(DE3)

What was measured:
[1] = target: T1, PhoA (APase; MADE1013045) (Alteromonas mediterranea, UniProt F2G8N3); assay: p-nitrophenol release, absorbance […] nm, Michaelis-Menten fit; type: biochemical; settings: read-out: KM (μmol l^-1); 100 mM Tris pH 8.2, 24 °C, 100 µM MgCl2; 10 nM enzyme
T1 construct: gene MADE_1013045; full-length 1467-bp synthetic gene, pETM-14, N-terminal His6-PreScission 3C, tag cleaved, expressed in E. coli BL21(DE3)
T1 sequence (F2G8N3 1-488): B1 chain

purified protein [2] = substrate: O=[N+]([O-])c1ccc(OP(=O)(O)Oc2ccc([N+](=O)[O-])cc2)cc1; assay: purified protein; type: biochemical, Alteromonas mediterranea; settings: 100 mM Tris pH 8.2, 24 °C, 100 µM MgCl2, 10 nM enzyme
purified protein [3] = substrate: O=[N+]([O-])c1ccc(OP(=O)(O)O)cc1; assay: purified protein; type: biochemical, Alteromonas mediterranea; settings: 100 mM Tris pH 8.2, 24 °C, 100 µM MgCl2, 1 nM enzyme, text rounds KM to 90 µM

Molecule | Km [1] [µM] | Km (purified protein [2]) [µM] | kcat (purified protein [2]) [s⁻¹] | kcat/Km (purified protein [2]) [M⁻¹ s⁻¹] | Km (purified protein [3]) [µM] | kcat (purified protein [3]) [s⁻¹] | kcat/Km (purified protein [3]) [M⁻¹ s⁻¹]
COP(=O)(OC)Oc1ccc([N+](=O)[O-])cc1 [Paraoxon-methyl] | 0.015 | – | – | – | – | – | –
B1 | – | 0.3 ± 0.1 | 0.017 ± 0.001 | 55000 ± 8000 | 94 ± 35 | 0.5 ± 0.03 | 4800 ± 800
